From patent publication US8465912B2, “Methods for the identification of agents that inhibit mesenchymal-like tumor cells or their formation” (OSI Pharmaceuticals, LLC, priority 2009, dated 2013)

Assays:
pancreatic cancer = settings: in combination with gemcitabine; cited from earlier work
[1] = test system: advanced, treatment-refractory NSCLC; settings: patients with advanced; cited from earlier work
carcinoma cells = settings: cited from earlier work
H1650 cells [2] = test: Doubling time of ligand-treated H1650 cells; type: cell-based, human; settings: 7 days ligand, doubling time over following two weeks, versus untreated
Procedure: (§1) The human cell line, H1650 was cultured in […] containing 10% FBS, 2 mM L-Glutamine, and 1 mM sodium pyruvate, at 37° C., 5% CO2. Growth factor and cytokine induced EMT was monitored over 7 days. Growth factor and cytokines were obtained from commercial sources and used as follows: HGF (Hepatocyte growth factor) at 100 ng/ml, EGF (Epidermal Growth Factor) at 100 ng/ml, OSM (Oncostatin M) at 100 ng/ml, TGFβ1 (Transforming growth factor, beta 1) at 10 ng/ml, and TNFα (Tumor necrosis factor alpha) at 25 ng/ml.
Cells were plated and treated with ligand for 7 days. On day 7, cells were counted and re-plated on 6 cm cell culture dishes. On days 3, 5, 7, 10 and 12, cells were trypsinized and counted to determine the total number of cells in the dish, in duplicate. Doubling time was calculated using the multiple time point method on the website www.doubling-time.com.

H1650 cells [3] = test: Induction of EMT by growth factors and cytokines in 2D culture (immunoblot, morphology, confocal); type: cell-based, human; settings: H1650 2D; 7 days; HGF, EGF, OSM 100 ng/ml, TGFβ1 10 ng/ml, TNFα 25 ng/ml
Procedure: as §1
Cells were harvested by washing once with PBS, and lysing on ice for 10 minutes with scraping (using a Cell Lifter, Corning Inc. #3008) in ice cold RIPA buffer (Sigma R0278) containing Protease inhibitor (Sigma P8340), Phosphatase inhibitors (Sigma P2850, P5726) and 200 μM Sodium Vanadate. Supernatents were micro-centrifuged at max speed, 4° C. for 10 minutes. Protein content was quantitated using the BCA method (Pierce #23225) and samples were normalized to total protein in Laemli buffer and heated at 100° C. for 10 minutes. SDS PAGE was run using a Bis-Tris gel system (Invitrogen NuPAGE) with MOPS buffer (Invitrogen NP0001), transferred onto nitrocellulose using the iBLOT system (Invitrogen) and blocked in PBS-T (0.1% Tween 20), 5% non-fat milk or BSA in guidance with primary Ab supplier requirements. All primary antibodies were incubated overnight at 4° C. in PBS-T (0.1% Tween 20) in either 5% non-fat milk or BSA, diluted to the following working dilutions: anti E Cadherin (Santa Cruz #sc-21791) 1:500 dilution; anti Vimentin (BD Biosciences #550513) 1:2000 dilution;); 1:1000 dilution; anti β-Actin (Sigma, A5441) 1:10,000 dilution. Secondary HRP labeled antibodies used were: anti Rabbit IgG HRP (Amersham NA934) 1:5000 dilution; anti Mouse IgG HRP (Sigma A2304) 1:2000 dilution. Membranes were visualized using the Supersignal ELISA Femto Maximum Sensitivity Substrate (Pierce).
Cells were fixed in 4% paraformaldehyde (Electron Microscopy Sciences #15710)/PBS (Gibco#14190) for 10 minutes at room temperature, washed with PBS and permeabilized with 0.1% Triton X100 (Sigma P1379) in PBS for 10 minutes at room temp. Cells were blocked with 3% BSA/PBS for at least 15 minutes then incubated with primary antibody diluted in blocking buffer for a minimum of two hours at room temperature. Anti E-Cadherin was used at a 1:75 dilution and anti Vimentin (Millipore #AB5733) was used at a 1:2000 dilution. Cells were washed, incubated with fluorescently-labeled secondary antibodies for one hour, followed by a 5 minute TO-PRO3 nuclear counterstain (Invitrogen #T3605) at room temperature, washed and mounted on slides with Pro-Long Gold anti-fade reagent (Invitrogen #P36934). Secondary fluorescent antibodies used were: anti mouse 488 nm (Invitrogen #A11029) 1:600 dilution; anti chicken TRITC (Chemicon #AP194R) 1:50 dilution. Stained cells were captured on a Leica DMRXE microscope/SP2 scanner using Leica Confocal Software (LCS).
The ability of cell lines to undergo epithelial to mesenchymal transition (EMT) was investigated using different extracellular ligand drivers. A panel of NSCLC, pancreatic, and breast cancer cell lines were screened by treatment of cells for 7 days in presence of respective ligands, either singly or in combination. Initial screening determined the ability of the ligand to cause morphology change, to down-regulate the epithelial marker, E-cadherin or to up-regulate a mesenchymal marker such as vimentin. Potential EMT cell models should up-regulate a mesenchymal marker and display morphology change. More robust models would show a down-regulation of E-cadherin expression.

H1650 cells [4] = test: qPCR of EMT gene changes in response to ligand treatment; type: cell-based, human; settings: 7 days ligand, qPCR normalized to GAPDH and untreated control
Procedure: as §1
Cells were plated and treated with ligand for 7 days. At the time of harvest, cells were trypsinized and snap frozen for later use. Total RNA was isolated using RNAqueous-4 PCR Kit (Ambion, AM1914). Samples were DNase treated using the Turbo DNA-Free kit (Ambion, AM1907) and reverse transcribed using Superscript III (Invitrogen, 18080-044) for qPCR analysis. Taqman primers and Locked-Nucleic Acid probes were designed using ProbeFinder software (Universal Probe library, Roche). For mRNA analysis, real time PCR was performed using the ABI 7900HT series PCR machine. Thermocycle conditions were as follows: 50° C. for 2 minutes, 95° C. for 10 minutes, 95° C. for 15 seconds, 50° C. for 10 seconds, 60° C. for 1 minute. Data was collected over 45 cycles and then normalized to GAPDH and further normalized to the untreated control sample.

Question: What does the source list for `C#Cc1cccc(Nc2ncnc3cc(OCCOC)c(OCCOC)cc23)c1` [erlotinib, [6,7-bis(2-methoxyethoxy)-4-quinazolin-4-yl]-(3-ethynylphenyl) amine]?
Answer: Survival, phase III first-line (pancreatic cancer): improves survival; Clinical outcome, phase III monotherapy [1]: significantly prolonged survival, delayed disease progression and delayed worsening of lung cancer-related symptoms; Cellular sensitivity after EMT-like transition (carcinoma cells): cellular insensitivity

B1: OSM: Oncostatin M, commercial cytokine used at 100 ng/ml (protein, UniProt P13725 26-221, looked up)
Oncostatin-M: AAIGSCSKEYRVLLGQLQKQTDLMQDTSRLLDPYIRIQGLDVPKLREHCRERPGAFPSEETLRGLGRRGFLQTLNATLGCVLHRLADLEQRLPKAQDLERSGLNIEDLEKLQMARPNILGLRNNIYCMAQLLDNSDTAEPTKAGRGASQPPTPTPASDAFQRKLEGCRFLHGYHRFMHSVGRVFSKWGESPNRSRR
Question: Which “Change in doubling time” value (H1650 cells [2]) does the source give for B1 here?
Answer: The value was “modest decrease”.

Question: And the “Induction of EMT (E-cadherin, vimentin, morphology)” value (H1650 cells [3])?
Answer: Its value is “do not stimulate EMT by themselves”.

Question: And the ACTN1 gene change (H1650 cells [4])?
Answer: The ACTN1 gene change was “NC (Fold changes less than 3 are reported as NC)”.

Question: And the CDH1 gene change (H1650 cells [4])?
Answer: Its CDH1 gene change is “NC (Fold changes less than 3 are reported as NC)”.

Question: What about the CDH2 gene change (H1650 cells [4]) of the same molecule?
Answer: Its CDH2 gene change is “NC (Fold changes less than 3 are reported as NC)”.

Question: What about the CLDN3 gene change (H1650 cells [4]) of the same molecule?
Answer: Its CLDN3 gene change is “NC (Fold changes less than 3 are reported as NC)”.

Question: What about the ERBB3 gene change (H1650 cells [4]) of the same molecule?
Answer: The ERBB3 gene change was “NC (Fold changes less than 3 are reported as NC)”.

Question: What about the ITGB3 gene change (H1650 cells [4]) of the same molecule?
Answer: Its ITGB3 gene change is 13.25 fold change.

Question: What about the MTA3 gene change (H1650 cells [4]) of the same molecule?
Answer: Its MTA3 gene change is “NC (Fold changes less than 3 are reported as NC)”.

Question: And the OCLN gene change (H1650 cells [4])?
Answer: Its OCLN gene change is “NC (Fold changes less than 3 are reported as NC)”.

Question: And the PLAUR gene change (H1650 cells [4])?
Answer: The PLAUR gene change was “NC (Fold changes less than 3 are reported as NC)”.

Question: What about the SNAI1 gene change (H1650 cells [4]) of the same molecule?
Answer: The SNAI1 gene change was “NC (Fold changes less than 3 are reported as NC)”.

Question: And the SNAI2 gene change (H1650 cells [4])?
Answer: The SNAI2 gene change was 3.44 fold change.

Question: And the SPARC gene change (H1650 cells [4])?
Answer: Its SPARC gene change is “NC (Fold changes less than 3 are reported as NC)”.

Question: What about the TJP3 gene change (H1650 cells [4]) of the same molecule?
Answer: Its TJP3 gene change is “NC (Fold changes less than 3 are reported as NC)”.

Question: What about the TWIST1 gene change (H1650 cells [4]) of the same molecule?
Answer: The TWIST1 gene change was “NC (Fold changes less than 3 are reported as NC)”.

Question: And the VCAN gene change (H1650 cells [4])?
Answer: The VCAN gene change was 3.88 fold change.

Question: What about the VIM gene change (H1650 cells [4]) of the same molecule?
Answer: Its VIM gene change is 4.18 fold change.

Question: What about the ZEB1 gene change (H1650 cells [4]) of the same molecule?
Answer: The ZEB1 gene change was 3.15 fold change.

Question: And the ZEB2 gene change (H1650 cells [4])?
Answer: Its ZEB2 gene change is 4.43 fold change.
